Reference: patent US9926369B2, “Methods for treating hepatocellular cancer by administering an anti-Ang-2 antibody” (Regeneron Pharmaceuticals, Inc., priority 2009, dated 2018)

Key:
Dimeric Human Ang-2FD = biological target: T1, Dimeric Human Ang-2FD (Homo sapiens, UniProt O15123); test: Surface plasmon resonance binding to dimeric human Ang-2FD conjugated to human IgG1; settings: SPR, room temperature
T1 sequence (O15123 282-496): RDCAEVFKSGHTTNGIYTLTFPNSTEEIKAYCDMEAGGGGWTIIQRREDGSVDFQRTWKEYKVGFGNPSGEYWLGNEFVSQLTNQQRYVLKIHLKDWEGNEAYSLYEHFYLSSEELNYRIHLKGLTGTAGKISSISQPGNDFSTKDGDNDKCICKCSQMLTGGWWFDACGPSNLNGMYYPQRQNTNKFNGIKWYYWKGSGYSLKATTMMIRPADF
Method: (§1) Equilibrium dissociation constants (KD values) for the binding of selected purified Ang-2 antibodies to dimeric fibrinogen-like domain of human (SEQ ID NO: 519), mouse (Mus musculus; SEQ ID NO: 520) and monkey (Macca fascicularis; SEQ ID NO: 521) Ang-2 (Ang-2FD) conjugated to human IgG1 (SEQ ID NO:528) were determined by surface kinetics using a real-time biosensor surface plasmon resonance assay. Antibody was captured on a goat anti-mouse IgG polyclonal antibody surface, a goat anti-human κ polyclonal antibody (Southern Biotech, Birmingham, Ala.) surface or a goat anti-human IgG polyclonal antibody (Jackson Immuno Research Lab, West Grove, Pa.) surface created through direct amine coupling to a BIACORE™ CM5 sensor chip to form a captured antibody surface. Varying concentrations (ranging from 50 nM to 6.25 nM) of protein were injected at 100 μl/min over captured antibody surface for 90 seconds. Antigen-antibody binding and dissociation were monitored in real time at room temperature. Kinetic analysis was performed to calculate KD and half-life of antigen/antibody complex dissociation.
The above experiment was repeated using selected purified anti-Ang-2 antibodies cloned onto human IgG1.

hAng-2FD-mFc K-432-N = biological target: T2, hAng-2FD-mFc K-432-N (Homo sapiens, UniProt O15123, K432N); test: Ang-2FD-mFc point mutant binding experiment (SPR), K-432-N; settings: K-432-N mutant captured; antibody/peptibody at 100 nM; 25° C.
T2 construct: made in house
Source text: To further characterize binding between hAng2 and anti-hAng2 mAbs of the invention, seven variant hAng2-FD-mFc proteins were generated, each containing a single point mutation. Amino acids selected for mutation were based on the difference in sequence between hAng-2 and hAng-1 in the region that interacts with hTie-2 (FIG. 1). In particular, amino acids within the fibrinogen-like domain (FD) of Ang-2 which are believed to interact with Tie-2 based on crystal structure analysis, but which differ from the corresponding amino acid in Ang-1, were individually mutated to the corresponding hAng-1 residue. The results of this example indicate the amino acid residues of hAng-2 with which the Ang-2 preferential binding antibodies interact.
In this experiment, each of the seven hAng-2FD-mFc mutant proteins were captured (˜147-283 RU) on an anti-mouse-Fc surface created through direct chemical coupling to a BIACORE™ chip. Then each Ang-2 antibody (or peptibody, as the case may be) at 100 nM was injected over the captured mFc-tagged hAng-2FD protein surface at a flowrate of 50 μl/min for 180 sec, and the dissociation of variant hAng2-FD-mFc and antibody was monitored in real time for 20 min at 25° C.

[1] = biological target: T3, Human Ang-2FD-hFc binding to hTie-2-mFc (Homo sapiens, UniProt O15123); test: ELISA blocking of human Ang-2FD-hFc binding to hTie-2-mFc; assay type: biochemical; settings: 16.67 nM antibody; 2 nM Ang-2FD-hFc
T3 sequence (O15123 282-496): T1 sequence (O15123 282-496)
Method: Tie-2 is a natural receptor for Ang-2. Anti-Ang-2 antibodies were tested for their ability to block Ang-2 binding to human Tie-2 (hTie-2). hTie-2-mFc (a chimeric construct consisting of human Tie-2 conjugated to mouse IgG; SEQ ID NO:525) was coated onto 96-well plates at a concentration of 2 μg/ml and incubated overnight followed by washing four times in wash buffer (PBS with 0.05% Tween-20). The plate was then blocked with PBS (Irvine Scientific, Santa Ana, Calif.) containing 0.5% BSA (Sigma-Aldrich Corp., St. Louis, Mo.) for one hour at room temperature. In a separate plate, purified anti-Ang-2 antibodies, at a starting concentration of 50 nM, were serially diluted by a factor of three across the plate. Human, mouse or monkey Ang-2FD protein conjugated to human IgG (Ang-2FD-hFc) were added to final concentrations of 2 nM, 8 nM, or 2 nM respectively and incubated for one hour at room temperature. The antibody/Ang-2FD-Fc mixture was then added to the plate containing hTie-2-mFc and incubated for one hour at room temperature. Detection of Ang-2FD-hFc bound to hTie-2-mFc protein was determined with Horse-Radish Peroxidase (HRP) conjugated to a-human IgG antibody (Jackson Immuno Research Lab, West Grove, Pa.) and developed by standard colorimetric response using tetramethylbenzidine (TMB) substrate (BD Biosciences, San Jose, Calif.). Absorbance was read at OD450 for 0.1 sec.

hAng-2-WT = biological target: T4, hAng-2-WT (Homo sapiens, UniProt O15123); test: SPR binding to wild-type human Ang-2 (Table 8)
T4 construct: wild-type human Ang-2 (hAng-2-WT)
T4 sequence (O15123 19-496): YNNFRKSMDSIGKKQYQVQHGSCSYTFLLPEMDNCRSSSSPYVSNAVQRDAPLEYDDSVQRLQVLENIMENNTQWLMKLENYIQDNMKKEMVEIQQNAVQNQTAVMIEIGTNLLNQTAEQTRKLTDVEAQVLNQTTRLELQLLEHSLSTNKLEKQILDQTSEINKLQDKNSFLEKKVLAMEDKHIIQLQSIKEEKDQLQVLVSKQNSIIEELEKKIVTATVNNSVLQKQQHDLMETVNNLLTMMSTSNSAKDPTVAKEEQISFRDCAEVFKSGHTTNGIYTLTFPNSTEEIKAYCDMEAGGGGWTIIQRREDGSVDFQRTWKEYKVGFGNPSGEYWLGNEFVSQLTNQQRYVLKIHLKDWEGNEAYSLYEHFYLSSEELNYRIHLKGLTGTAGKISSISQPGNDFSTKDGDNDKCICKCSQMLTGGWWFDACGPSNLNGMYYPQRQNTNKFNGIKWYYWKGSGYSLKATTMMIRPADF
Method: as §1
In yet another experiment, KD values for selected purified antibodies that bind to wild-type human Ang-2 (hAng-2-WT; SEQ ID NO: 518) and the fibrinogen-like domain of human Ang2 (hAng-2FD) were determined (as described above).

T2 sequence (O15123 with tags, fused parts or gaps K432N): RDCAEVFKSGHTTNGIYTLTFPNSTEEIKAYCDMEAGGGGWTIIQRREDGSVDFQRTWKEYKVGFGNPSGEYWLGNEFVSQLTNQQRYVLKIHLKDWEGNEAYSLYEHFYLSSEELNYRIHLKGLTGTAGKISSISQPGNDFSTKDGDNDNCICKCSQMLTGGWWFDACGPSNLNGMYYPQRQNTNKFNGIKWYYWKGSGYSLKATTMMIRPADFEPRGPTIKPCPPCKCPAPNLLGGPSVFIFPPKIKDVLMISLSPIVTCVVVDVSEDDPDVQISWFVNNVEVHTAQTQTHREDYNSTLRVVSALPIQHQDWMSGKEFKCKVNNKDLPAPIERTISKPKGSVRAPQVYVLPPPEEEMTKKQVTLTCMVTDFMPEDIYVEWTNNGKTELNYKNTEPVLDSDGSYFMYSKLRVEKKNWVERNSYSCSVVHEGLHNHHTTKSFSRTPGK

Substance: H1H685P: human anti-Ang-2 antibody, HCVR/LCVR SEQ ID NOs 18/20; also referred to as mAb1 [Antibody H1H685P]
- Kd (Dimeric Human Ang-2FD): 0.0714 nM
- Kd (hAng-2FD-mFc K-432-N): 0.014 nM
- RU (hAng-2FD-mFc K-432-N): 152.68 RU
- Percent Blocking of Ang-2FD Binding to Tie-2, Human Ang-2FD-hFc [1]: 93.8%
- Kd (hAng-2-WT): 0.0476 nM
